This note sets out measurements from paper PMC6515931, “The Efflux Mechanism of Fraxetin-O-Glucuronides in UGT1A9-Transfected HeLa Cells: Identification of Multidrug Resistance-Associated Proteins 3 and 4 (MRP3/4) as the Important Contributors” (Frontiers in Pharmacology, 2019).

The test system of one data set is HeLa1A9 cells. Briefly: Glucuronide excretion experiments in HeLa1A9 cells. Format: cell-based, human. As to the method: The HeLa1A9 cells were pretreated and incubated with fraxetin solutions as reported previously ([Jiang et al., 2011]). Before assays, the HeLa1A9 cells were washed twice with prewarmed (37°C) Hank’s balanced salt solution (HBSS; pH = 7.4). […] At each time point (30, 60, 90, and 120 min), 200 μL of the culture supernatant from each well was collected as samples, and an equal volume of a loading media was used to replenish each well. Next, the collected samples were each mixed with 100 μL ice-cold acetonitrile. The supernatants were subjected to UHPLC analysis after centrifugation (10 min at 13800 × g).
In addition, the excretion rate of intracellular glucuronides was calculated using Equ. 2. Fraction metabolized or the fmet value was defined as the fraction of a dose metabolized based on Equ. 3. The fmet value was regarded as the more appropriate parameter to reflect the extent of drug metabolism in intact cells in the presence of a transporter–enzyme interplay.
(2) Excretion rate=VdC(excretedglucuronide)/dt
where V is the volume of the incubation medium, C is the excreted cumulative concentration of glucuronides, and t denotes the incubation time. Here, dC(excreted glucuronide)/dt describes the changes in glucuronide levels with time.

Substrate in data set [1]: CC(C)c1cccc(C(C)C)c1O
The experiment in a line: cells, lysate or membranes named. As to conditions: other: metabolite propofol-G, pH 7.4, 37.0 °C.

Substrate in data set [2]: COc1cc2ccc(=O)oc2c(O)c1O
Briefly: cells, lysate or membranes named. The note with it: UGT1A9 enzyme, pH 7.4, 37.0 °C.

Substrate in data set [3]: COc1cc2ccc(=O)oc2c(O)c1O
Briefly: Glucuronidation kinetics by HeLa1A9 cell lysate. It counts as in vitro ADME, human.

Setting [4] is: other: metabolite G1, pH 7.4, 37.0 °C.
The mark [5] stands for this setting: other: metabolite G2, pH 7.4, 37.0 °C.

As a reminder, the Km is the substrate concentration at which the rate is half of its maximum. As a reminder, the Vmax is the top rate of the reaction or transport when substrate is in excess.

On to `CC(C)c1cccc(C(C)C)c1O[C@@H]1O[C@H](C(=O)O)[C@@H](O)[C@H](O)[C@H]1O` [propofol-O-glucuronide], for which the results for the excretion rate in the data set with HeLa1A9 cells (propofol 40 μM incubated with HeLa1A9 cells) and in the data set with HeLa1A9 cells (propofol 80 μM incubated with HeLa1A9 cells) were 0.053 pmol/min and 0.070 pmol/min, respectively.

B1: UGT1A9 (Homo sapiens) (protein)
chain: GKLLVVPMDGSHWFTMRSVVEKLILRGHEVVVVMPEVSWQLGRSLNCTVKTYSTSYTLEDLDREFKAFAHAQWKAQVRSIYSLLMGSYNDIFDLFFSNCRSLFKDKKLVEYLKESSFDAVFLDPFDNCGLIVAKYFSLPSVVFARGILCHYLEEGAQCPAPLSYVPRILLGFSDAMTFKERVRNHIMHLEEHLLCHRFFKNALEIASEILQTPVTEYDLYSHTSIWLLRTDFVLDYPKPVMPNMIFIGGINCHQGKPLPMEFEAYINASGEHGIVVFSLGSMVSEIPEKKAMAIADALGKIPQTVLWRYTGTRPSNLANNTILVKWLPQNDLLGHPMTRAFITHAGSHGVYESICNGVPMVMMPLFGDQMDNAKRMETKGAGVTLNVLEMTSEDLENALKAVINDKSYKENIMRLSSLHKDRPVEPLDLAVFWVEFVMRHKGAPHLRPAAHDLTWYQYHSLDVIGFLLAVVLTVAFITFKCCAYGYRKCLGKKGRVKKAHKSKTH
In the case of B1, in data set [1] (UGT1A9 enzyme), the Km came to 53 ± 6 µM. Moreover, in data set [2] (other: metabolite G1), the Km amounted to 16 ± 2 µM, the Vmax is 0.00292 µmol/min/mg and the Vmax/Km was 180 µL/min/mg. In addition, in data set [2] (other: metabolite G2), the Km amounted to 10 ± 1 µM, the maximum rate (Vmax) was 0.00144 µmol/min/mg and the Vmax/Km came to 150 µL/min/mg.

B2: HeLa1A9 cell lysate (Homo sapiens) (protein)
chain: B1 chain
notes: expressed in transfected cells; host or cells: HeLa cells stably transfected with the UGT1A9 gene (HeLa1A9); lysate supernatant
B2: the Km in data set [1] (HeLa1A9 cell lysate) amounted to 59 ± 13 µM. Also, in data set [3] (setting [4]), the Michaelis constant (Km) worked out at 13 ± 2 µM, the Vmax was found to be 0.00011 ± 5e-06 µmol/min/mg and the Vmax/Km is 9 ± 1 µL/min/mg. Also, in data set [3] (setting [5]), the Michaelis constant (Km) is 8 ± 1 µM, the Vmax is 4.2e-05 ± 2e-06 µmol/min/mg and the Vmax/Km worked out at 5 ± 1 µL/min/mg.
